B1: TPR t1 (parent)
chain: GACCAAUCUGCCCUCAGAGCUCGAGAACAUCUUCGGAUGCAGAGGAGGCAGGCUUCGGUGGCGCGAUAGCGCCAACGUCCUCAACCUCCAAUGCAUCCCACCACAUGAUGAUGCCUGAAGAGCCUUGGUUUUUUG

Variants of: B1
Experiment: polymerase ribozyme fitness, log enrichment relative to wild type (log ratio); higher = more active; in vitro selection for triplet polymerase activity
Method in brief: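 Both subunits of a heterodimeric triplet polymerase ribozyme were given their own mutant library, built by PCR and transcribed. Each library was annealed with a biotinylated primer, the partner subunit and triplets, incubated frozen at −7 °C, and its extended constructs gel-excised, captured on streptavidin beads and amplified by RT-PCR, all in one round done in triplicate. Fitness is the logarithm of genotype enrichment relative to wild-type enrichment, with replicates averaged by inverse-variance weighting. That logarithm is base 2, and Illumina-sequenced genotypes needed ≥10 input reads and ≥1 read per output.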

Variant	polymerase ribozyme fitness (log ratio)
C4G C13G C49A G60A C62U	-4.62
A68C C115G C124U	-6.57
C72G U129C U130A	-1.89
G113C U129A	-3.5
G10U U32C C56A C64A	-6.8
U54C G120A	-0.357
G51A G52A U112A U116C G128A	-6.33
C12U G39U	-0.353
U21C G57U	-0.235
A2C C28U U87C	-3.82
C34A C89U U112A U133A	-1.77
G10U C88U	-0.654
A29G C94A	-2.09
G45A C89G U116G	-4.12
C8A G77A	0.514
C56G G71A C82A C115A	-3.76
U59C C79U C114U	-1.91
C89A G117A A121U	-0.932
U33A	-4.27
G44C G47U G48A	-1.43
C73U C123G C124G	2.14
A83U A91C	-0.743
C20U G42U U55G G69C U87C	-4.35
C8U C11G C70U G93A	0.0777

Variant	polymerase ribozyme fitness (log ratio)
C72G U78G U116A	-3.97
U78C A83C G113U	-3.26
U59G C86U	0.709
C8G C76U C82G G93A U116C	-2.26
C22A U78C	-6.19
G52A C56U G93A	-0.382
C20U C40U A43U G93U	-4.35
A24G C86G C99U C114G	-7.76
G57U C88A	-1.1
A37C G60U U81A A121C	0.858
C8G C11A A50U U81C	-2.29
C4A G52A C73A	-2.51
G107A G120U	-4.71
A16U C64U U87A U112A A118G	-2.35
A6G C8U C49G C70A U78C	-3.15
U87A A105G	-2
C40G G42A U59A A95G C123G	-2.1
C94A A121U	1.37
C8U U21A C56U C114A G128A	-2.5
G71A A84G C102A C115G	-6.59
A27G A74G C115A	-4.15
C12G A43U C70A C79U C82A U96A	-5.11
G61A G93C A95C	-1.24
C22A C123A U125G	-4.58

Variant	polymerase ribozyme fitness (log ratio)
C13U C99U	-2.12
C22A U67C C80A U96A U109A	-6.8
U116G U129G	-4.36
G48A G77U G135U	-1.78
C13G A50U U87C	-3.31
U33G A84C	-6.66
C11G C49G C70U C88G A111U G127C	-5.65
U9A G39U G48A C72G C88U C89U G110C	-6.13
C56A C79G	-0.642
C28A A75G C86G C123U	-5.57
G71U A111U	-3.91
A95C G120U U129A	-1.76
G44A G71A U87G A90C G135U	-2.38
G60U G113A	-0.847
C8G G69C U96A	-2.59
U9C C56A A83C	0.00737
C28U G52C U106A U112A	-1.6
C34A G93A	-2.95
U7A C11G G44U A50G C94U U96A G117A	-1.92
U7A C56U	0.211
A41G A43U G61U C88G C94G G117A	-7.23
G47U C64A	-6.47
A37U C94U G117A	-2.17
G61C G122A G128U G135U	-3.92

Variant	polymerase ribozyme fitness (log ratio)
A27U C40G G57U U112A	-3
C88A G93U G120U	-3.17
C72A G120A U130G	-0.18
A74G A83C C114A C123G C124G	-0.429
G45U G110C	-4.47
C53U U126G	-1.77
C70U C104A	-2.32
A26U C53A G61C U78A G110A	-5.96
U59A U96A	-1.66
G93C C114U	-1.65
A91U G113U	-3.5
G10U G19A G36C C79U	-3.73
G48U G60A C85G	-0.64
A37C A46G C49A C72A	-0.663
G69U C104A U116A C124U	-0.357
C8U G45A G52C C72A C123G	1.37
A43U A46G C53G U87C C115U	-2.37
C13U G60A C114A U130C	-0.229
G93C A95C	-0.938
G61A C89U	-0.458
A6U C20G C76U G113U	-1.29
A43U G57U C86A	-2.97
C53A G60A C85G	-1.1
C3A G128U	-1.03

Variant	polymerase ribozyme fitness (log ratio)
C8G C56U	0.485
C22G U67A G93C A103G G110U	-5.12
G52U C56U A84U	-1.37
C4G A29G A74C A83U	-4.38
G48C U55G C79U A84C C85G G93U C124A	0.322
C15A U59A C101A	-3.37
G42C C102A	-4.06
A16U C22U C124A	-2.87
C62A U112A	-0.111
G39U U78G A83C A91G U129A	-3.94
C11G C13U A37U A83C	-0.361
A29C G45A C115U	-4.57
A5U C20A U33A A37G C49G G52A U78A A111U	-5.53
C20A C115G	-4.5
C11A G128C	-3.97
A5U C72U C114U	-2.7
C13G C62U G113A	-2.67
C40G G45U A90U G93U	-4.32
G69U G71U G117A	-2.19
C4U C53U C64U A84G	-1.67
C56G C124A	1.73
G60C A84U	-0.735
A27U G60C	-3.62
C15A U129A	-3.18

Variant	polymerase ribozyme fitness (log ratio)
G19U A43G	-2.34
G120A G127A	-0.68
G57U U87G	0.0269
G61A U92C C114A	-2.51
C13U G60A G69A U112G	-5.04
G52C C88A	-0.833
A91U G117A G120C G135C	-3.63
C3U G71U C101G	-3.08
G122A U129C	-0.808
A27U G48C	-3.79
G63U U78A A90U C94U G122U	-3.99
U59G C97A	-4.8
C3U C104U	-0.0507
C49U C104U	-0.182
U14G C15U C49G G58A U78C	-5.83
C8A C56U A83U G93A	0.0132
G48U G60U A66C U78G A90G C123A U132A	-1.91
A5U C53A C88A C98A U109A	-5.9
C11G C104A U130A	-2.13
A37U C49G U55A C104A	-1.38
C22G C123U	-2.66
G45U C73U	-1.98
C3U C12A U87C C124U	-0.256
C4A C11G C13A C53U G69C U81G G110A	-6.32

Variant	polymerase ribozyme fitness (log ratio)
A46C G117A	-2.35
A2C C8A C72U C123U	-0.16
C70U U92C C97U C123U	-0.926
C15U A26U	-5.06
C28A C70A	-4.81
A16C C70U	-3.17
U92C A121C	1.53
C56U C72U U116C G117U G120U	-3.95
C11G A111G	1.17
C31A G61A C94U C97U C123U	-6.35
G47U A100C	-2.83
G48C A90G	0.432
G45A C70A C85A U133C	-4.78
G39A G117U	-2.58
U9A C114U	-0.999
A43U G48U C56G U116A	-6.74
U7G G60C	-0.367
G51U G93C	-4.26
G36A G42A U54G	-3.13
A43U G120A	-0.64
C3U G45C G61A	0.0995
G35U C97U G120U	-5.69
U7A C53A	-0.0334
